Experimental data from patent US20190016813A1 (APROGEN KIC, published 2019).

T1: human CD43 (JL-1 antigen) on cells (human, UniProt P16150 20-400)
T1 construct: also called leukosialin; sialophorin
T1 sequence: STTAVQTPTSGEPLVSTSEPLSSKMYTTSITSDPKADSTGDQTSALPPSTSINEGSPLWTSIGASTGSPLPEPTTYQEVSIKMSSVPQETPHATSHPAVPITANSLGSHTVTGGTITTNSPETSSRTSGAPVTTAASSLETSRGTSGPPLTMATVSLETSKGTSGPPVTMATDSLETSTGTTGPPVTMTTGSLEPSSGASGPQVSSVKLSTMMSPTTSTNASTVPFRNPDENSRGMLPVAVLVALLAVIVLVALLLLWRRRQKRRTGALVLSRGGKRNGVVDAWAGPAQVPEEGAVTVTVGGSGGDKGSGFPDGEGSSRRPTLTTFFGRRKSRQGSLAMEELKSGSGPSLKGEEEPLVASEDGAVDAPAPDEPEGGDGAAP


Key:
[1] = target: T1, human CD43 (JL-1 antigen) on cells; experiment: immunofluorescence on Molt-4 cells, antibody 50 ug/ml, no human serum
[2] = target: T1, human CD43 (JL-1 antigen) on cells; experiment: staining of CEM7 cells, fluorescence intensity (FIG. 34)
[3] = target: T1, human CD43 (JL-1 antigen) on cells; experiment: binding to CD43 positive CEM7 cells (FIG. 45)

| Binder | binding result [2] | binding result [3] | also measured |
| --- | --- | --- | --- |
| mouse anti-CD43 monoclonal antibody (ART140 JL1) (antibody, human IgG1, kappa, V domains shown, also called mouse anti-JL-1 antibody; mJL-1) VH: EVQLQQSGPELVKPGASVKISCKASGYSIGGYFMNWVKQSHGKSPEWIGRINPNNGDSFYNQKFKGTATLTVDRSSDTVHMEVLSLTSEDSAVYYCGREGYYGGRGYALDYWGQGTSVTVSS VL: DIQMTQTTSSLSASLGDRVTISCRTSQDISNYLNWYQQKPDGTVKLLIYNTSRLHSGVPSRFSGSGSGTDYSLTIRNLEQKDIATYFCQQSNMFPYTFGGGTKLEIKR |  |  | binding result [1]: binds |
| humanized anti-CD43 antibody 257-10 (antibody, IgG1, V domains shown, glycosylated in the light chain variable region (N50-T-S52 motif; Concanavalin A blot)) VH: QVQLVQSGAEVKKPGASVKVSCKASGYTFNGYFMNWVRQAPGQGLRWMGRINPNNGDSFYNQKFQGRVTMTRDTSTSTVYMEPSSLRSEDTAVYYCAREGYYGGRGYALDYWGQGTLVTVSS VL: DTQMTQSPSSVSASVGDRVTITCRTSQDISNYLNWYQQKPGKAPKLLIYNTSRLHSGVPSRFSGSGSGTDFTLTISSLQPEDFATYYCQQSNMFPYTFGQGTKLEIKR | binds |  |  |
| modified humanized anti-CD43 antibody, light chain N50Q (antibody, V domains shown) VH: QVQLVQSGAEVKKPGASVKVSCKASGYTFNGYFMNWVRQAPGQGLRWMGRINPNNGDSFYNQKFQGRVTMTRDTSTSTVYMEPSSLRSEDTAVYYCAREGYYGGRGYALDYWGQGTLVTVSS VL: DTQMTQSPSSVSASVGDRVTITCRTSQDISNYLNWYQQKPGKAPKLLIYQTSRLHSGVPSRFSGSGSGTDFTLTISSLQPEDFATYYCQQSNMFPYTFGQGTKLEIK |  | binds |  |
| humanized anti-CD43 antibody 456-D10 (antibody, V domains shown, tested as humanized IgG) VH: QVQLVQSGAEVKKPGASVKVSCKASGYTFNGYFMNWVRQAPGQGLERMGRINPNNGDSFYNQKFQGRVTMTRDTSTSTVYMELPSLRSEDTAVYYCAREGYYGGRGYALDYWGQGTLVTVSS VL: DTQMTQSPSSVSASVGDRVTITCRTSQDISNYLNWYQQEPGKAPKLLIYNTSRLHSGVPSRFSGSGSGTDFTLTISSLQPEDFATYYCQQSNMFPYTFGQGTKLEIKR | binds |  |  |
| modified humanized anti-CD43 antibody, light chain N50A (antibody, V domains shown, also called modified humanized antibody removing glycosylation) VH: QVQLVQSGAEVKKPGASVKVSCKASGYTFNGYFMNWVRQAPGQGLRWMGRINPNNGDSFYNQKFQGRVTMTRDTSTSTVYMEPSSLRSEDTAVYYCAREGYYGGRGYALDYWGQGTLVTVSS VL: DTQMTQSPSSVSASVGDRVTITCRTSQDISNYLNWYQQKPGKAPKLLIYATSRLHSGVPSRFSGSGSGTDFTLTISSLQPEDFATYYCQQSNMFPYTFGQGTKLEIK |  | binds |  |
